Results on one substance are retold here after article PMC4213662.

The kon is the rate constant with which the complex forms.

In test [1] the target is ribosome-nascent chain complex actively translating a 3'-truncated lepB mRNA encoding the first 155 amino acids (Cy3B-labeled 50S subunit) (E. coli (strain MC4100) | E. coli) (UniProt P00803). The test can be described thus: FRET or BRET; as a1 but 250 nM EF-G (slower elongation). For orientation: In BRET a luciferase serves as donor, and the signal depends on an acceptor being close.

Test [2] shares this target. Briefly: FRET or BRET; single-molecule FRET in zero-mode waveguides; 100 nM Cy5-SRP in solution, RNCs translating lepB mRNA (155 amino acids) held by the biotinylated mRNA; 750 nM EF-G; Tris-based polymix buffer with 5 mg/ml BSA and 10 µM Blocking oligo; rates estimated from the time at which curves reach 50%.

As for “Cy5-labeled E. coli signal recognition particle (Ffh(E153C)-Cy5 reconstituted with 4.5S RNA) (from UniProt P0AGD7 1-453) (complex)”, in test [1], the half-time of arrival after the initial binding event (2nd–10th arrivals) was 12 s and the half-time of first arrival was found to be 350 s. In addition, in test [2], the half-time of arrival after the initial binding event (2nd–10th arrivals) is 5 s, the half-time of first arrival is 280 s and the kon was 1.8e+06 M⁻¹ s⁻¹.
